The results in this text go back to the nanobody polyreactivity screen of Harvey et al. (2022).

The series is described as follows: yeast display, Sf9 membrane polyspecificity reagent, FACS + sequencing; frameworks hold sequencing errors. In a few lines:
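After 36–48 hours of galactose induction, yeast (Saccharomyces cerevisiae BJ5465) displaying a synthetic nanobody library were stained at 4 °C for 1 hour with 10% biotinylated, detergent-solubilized Sf9 membrane reagent. Streptavidin microbeads enriched the stained cells before FACS sorting into low and high (top ~1%) gates on anti-HA and streptavidin fluorescence. Each clone's polyreactivity label reflects its gate of origin.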
With “QVQLVESGGGLVQAGGSLRLICAASGRIYIKNAMGWYRQAPGKERELVAAISSGSSTYYADSVKGRFTISRDNAKNSVYLQMYSLKPEDTAVYYCAAPDYRNGVRYPLDYWGQGTQVTVSS”, the “polyreactivity (PSR sort gate)” value is “low polyreactivity”.
Consider “QVQLVESGGGLVQAGGSLRLRGAASGSTFYRYAMGWSRQAPGKERELVAAISWSAGRTYYADSVKGRFTISRYTAKNTVYLQMNSLKPEDTAVYYCAARGWYKSDYWGQGTQVTVSS”, for which the “polyreactivity (PSR sort gate)” value is “low polyreactivity”.
“QVQLVESGVGLVQAGRNLRLSCAASGIIFYLNAMGWYRQAPGKERELVAAISNGTSTNYADSVKGRFTISRDNAKNTVYLQMNSLKPEDTAVYYCAADDLRYNSRSSNYRGDSWGQGTQVTVSS”: the “polyreactivity (PSR sort gate)” value is “low polyreactivity”.
On to “QVQLVESGGGLVQAGGSLRLSCAASGRTFNRNAMGWYRQAPGKARELVAAISRGGGGTFFADSVKWRFTISRDNAKNTVYLQMNSLKPEDTAFYFCAAVPIAADKANGYDYWGQGTQVTVSS”, for which the “polyreactivity (PSR sort gate)” value is recorded as “low polyreactivity”.
“QVQLVESGGGLVQAGGSLRLSCAASGRMFRWYAMGWYRPAPGKERELVAAITSGGSTNYADSVKGRFTISRDNAKNTVYLKMNSLKPEDTAVYYCAARWKFPSSFYYWGQGTQVTVSS”: the “polyreactivity (PSR sort gate)” value was “high polyreactivity”.
“QVQLVESGGGLVQAGGRLRLSCAASGRIFTYNAMGWYRQAPGKEREFVAAISSGGSTTYADSVKGRFTISRDNAKNTVYLQMNSLKPEDTAVYYCAAGGCRFAIIEYEYWGQGTQVTVSS”: the “polyreactivity (PSR sort gate)” value is recorded as “low polyreactivity”.
Regarding “QVQLVESGGGLVQAGGSLRLICAASGRIFDKNAMGWYRQAPGKERELVAAINRSGGRTYYADSVKGRFTISRDNAKNTVYLQMNSLKPEDTAVYYCAADTQGSRYDYWGQGTQVTVSS”, the “polyreactivity (PSR sort gate)” value is “high polyreactivity”.
The result for “QVQLVESGAGLVQAGGSLRLSCAPSGSIFWWYAMVWYRQAPGKERELVAVISGGTSTYYADSVKGRFTISRDNAKNTVYLQMNSLKPEDTAVYYCNADVFSKVSYFRYIEYDYWGQGTQVTVSS” reads “high polyreactivity”; that for “QVQLVESGGGLVQAGGSLRLSCAASGRTFAYYVMGWDRQAPGKERELVAAISWSAGSTYYADSVKGRFTISRDNAKNTVYLQMNSLKPEDTAVYYCAADYRFRYEYWGQGTQVTVSS”, “low polyreactivity”; that for “QVQLVESGGGLVQAGGSLPLSCAASGGTFYKYAMGWYRQAPGKERELVARISRGGSTYYADSVKGRFTISRDNAKNTVYLQMTSLKPEDTAVYYCAKLWYAVWPIVVQYNYWGQGTQVNVSS”, “high polyreactivity”.
Take “QVQLVESGGGLVQAGGSLRLSCAASGLTIYHYSMGCYRQAPGKERELGAAISGNGVSTYYADSVKGRFTISRDNAKNTVYLQMNSLNPEDTAVYYCNVVFRFNSFDFYYWGLGTQVTVSS”: the “polyreactivity (PSR sort gate)” value was “high polyreactivity”.
Consider “QVQLVESGGGLVQAGGSLRLSCAASGSTFTDYDMGWYRQAPGKERELVAAITSGGSTNYADSVKGRFTISRDNAKNTVYLQMISLKPEDTAVYYCAAADADRKYDYWGQGTQVTVSS”, for which the “polyreactivity (PSR sort gate)” value is “low polyreactivity”.
Take “QVQRVESGGGLLQAGGSLSLSCAASGSIFEWYAMGWYRQEPGTERELVAAIRSGGTTNYADSVKGRFTISRDHAKNTVYLQMNSLKPEVTAVYDCAAKSVTGLFRYYYWGQGTQVTVTS”: the “polyreactivity (PSR sort gate)” value is on record as “low polyreactivity”.
The result for “QVQLVESGGGLVQAGGSLRLSCASSGFTFSIYAMGWYRQAPGKERELVAAISSSGGITYYADAVKGRFTISRDNAKNTVYLQMKSLKPEDTAVYYWNKYFKTFYVSYLHDYWGQGTQVSVSS” reads “high polyreactivity”; that for “QVQLVESGGGLVQAGGSLRLSCAASGIIFRVYAMGWYRQAPGKERELVATITWSGGSTFYADSVKGRFTISRDNAKNTVYLQMNSLKPEDTAVYYCAARFLWSVFGRKGGYWGQGTQVTVSS”, “low polyreactivity”; that for “QVQLVESGGGLVQAGGSLRLSCAASGRIFDNYGMGWYRQAPGKERELVAAISSGGGTYYADSVKGRFTISRDNAKNTVYLQMNSLKPEDTAVYYCAKRRVYDRSFGRYDYWGQGTQVTVSS”, “low polyreactivity”.
For “QVQLVESGGGLVQAGGSLRLSCAASGLIFQLYAMGWSRQAPGKERELLAAITIRDGSTYYADSVKGRFTISRDNAKNTVYFQMNSLKPEDTAFYFCAAEPVYYYPWSQYDYWGQGTQVTVSS”, the “polyreactivity (PSR sort gate)” value is “high polyreactivity”.
The result for “QVQLVESGGGLVQAGGSLRLSCAASGFTFDHNDMGWYRQAPGKEMELVAAITWSAGSTYYADSVKGRFTISRDNAKNTVYLEMNSLKPEDTAVYYCAADAWYYSIYRGGDYWGQGTQVTVSS” reads “low polyreactivity”.
With “QVQLVESGGGLVQAGGSLRLSCSASGRIFPRYAMGWYIQEPGKEMELFATISSGGSTYYADSVKGRFTITRDNAKNTVYLQMNSLKPEDTADYYCADRKGQYTVINGMDYWGQGTQVTVSS”, the “polyreactivity (PSR sort gate)” value is given as “low polyreactivity”.
Turning to “QVQLVESGGGLVQEGGSLRLSCAASGITFGSYAMGWYRQAPGKERELVAAIDTSGDDTYYADSVKGRFTISRDNAKYTVYLQMNSLKPEDTAVYYCAADFPSAEVDYWGQGTQVTVSS”, the “polyreactivity (PSR sort gate)” value is “low polyreactivity”.
“QVQLVESVGGLVQAGVSLPLSCAASGFTFSYNAMGWYIQAPGKERELVATIRSSGGSTNYADSVKGRFTISRDNAKNTVYVQMNSLKPEDTAVYYCAADFSYYSTYDYWGQGTQVTVSS”: the “polyreactivity (PSR sort gate)” value was “low polyreactivity”.
As for “QGQLQESGGGLVKAGGSLRLSCPASGNISNHKDMGWYRQAPGKESEFVAGITAGGITNYADSVTGRFTICRDNAKNTVDLVMNSLKPEDTAVYYSAAYPDYAKSYGYWGQGTQATVSS”, the “polyreactivity (PSR sort gate)” value is recorded as “low polyreactivity”.
For “QVQLVESVGGLVQAGGSLRLSCAPSGRTFYIYAMGRYRQAPGKERELVAAISISGSTYYADSVKGRFTISRDNAKNTVYLQMNSLKPEDTAVYYCAADYLDSTYGYVYGWDDYLGQGTQVTVSS”, the “polyreactivity (PSR sort gate)” value is given as “low polyreactivity”.
“QVQLVESGGGLVQAGGSLRLSCAASGRIFRYYAMGWYRQAPGKERELVATISGRGGSTYYADSVKGRFTISRDNAKNTVYREMNSLKPEDTAVYYCYTVSTRYIYDYWGQGTQVTVSS”: the “polyreactivity (PSR sort gate)” value is “high polyreactivity”.
Turning to “QVQLVESGGGLVQAGGSLRLSCAASGRIFGGYTMGWYRQAPGKERELVAAIRWSGGRTYYADSVKGRFTISRDNAKNTVYLQMNSLKPEDTAVYYCNRTPRYTIRYGYWGQGTQVTVSS”, the “polyreactivity (PSR sort gate)” value is “high polyreactivity”.
Take “QVQLVESGGGLVQAGGSLRLSCAASGFIFRYNAMGWYRQAPGKERELVARITSSGGTTYYADSVKGRFTISRDNAKNTVYLQMNSLKPEDTAVYYCAITWRKYYPPYYYWGQGTQVTVSS”: the “polyreactivity (PSR sort gate)” value was “high polyreactivity”.
As to “QDQLVESGGGLVQAGGSLRLSCAASGRTFTFNTMGWYRQAPGKERELVAAIVGDGTTNYADSVKGRFTISRDNAKNTVYLQMYSLKPEDTAVYYCAADFLYSFWYEPTFDYWGQGTQVTVSS”, the “polyreactivity (PSR sort gate)” value is listed as “low polyreactivity”.
With “QVQLVESGGGLVQAGGSLRLSCAASGSTIYVYAMGWYRHPPGKERELVAAISTAGGRTSYADSVKGRFTISRDNAQNTVYLQMNSLKPEDTAVYYCAARSTLYRSIRYDYWGQGTQVTVSS”, the “polyreactivity (PSR sort gate)” value was “high polyreactivity”.
With “QVQLVESGGGLVQAGGSLRLSCAASGSIFLLYAMGGYRQAPGKERELVAAITRGGGSTYYADSVKGRFTISRDNAKNTVYLQMNSLKPEDTAVYYCAKGFQNHNGRLVVAYDYWGQGTQVTVSS”, the “polyreactivity (PSR sort gate)” value is “low polyreactivity”.
As for “QVQLVESGGGLVQAGGSLRLSCAASGFIFRLYAMGLYRQAPGKERELVAAITTSGDSTYYADSVKGRFTISRDNSKNTFYLQMNCLKPEDTAVYYCAARYYYPPKRGYWGQGSQVTVSS”, the “polyreactivity (PSR sort gate)” value is listed as “high polyreactivity”.
For “QVQLVESPGGLVKAGGSLRLSCDASGRTFYGYAMGWYRQPPGKEREFVAAITWSGSSTNYADSVKGRFTISRDNATNSVYLQMNSLKPDDTAVYYCAASYYAPYWSMDNWGQGTQETVSS”, the “polyreactivity (PSR sort gate)” value is “high polyreactivity”.
Regarding “QVQLVESGGGLVQAGGSLRLSCAASGITFLRNTMGWYRQAPGKERELVAAISRCGSTYYADSVKGRFTISRDNAKNTVYLQMNSLKPEDTAVYYCNAPSYVQATDYDYWGQGTQVTVSS”, the “polyreactivity (PSR sort gate)” value is given as “high polyreactivity”.
As to “QVQLVESGGGLVQAGGSLRVSCAAYGRIFLANAMGGYRTAAGKERELVAAISYSGGSTYYADSVKGRFTISRDNAKNTVYLQMNSLKPEDTAVYYCAADAFTWYTGRAWKYYYWGHGTQVTVSS”, the “polyreactivity (PSR sort gate)” value was “low polyreactivity”.
For “QVQLVESGGGLVQAGGSLRLSCAASGSIFELYAMGWYRQAPGKDRELVASITWSSSNTHYADSVKGRFTISRDNAKNTVYLQMNSMKPEDTAVYYCAKDVLYGQFDGDSWGQGNQVTVSS”, the “polyreactivity (PSR sort gate)” value is reported as “low polyreactivity”.
“QVQLVESGAGLVQAGGSLRLSCAASGRTFRYSAMGWYRQAPGKERELVAAISSRGNTYYADSVKGRFTISRDNAKNTVYLQMNTLKPEDTAVYYCAAYVYRVQYDFDYWGQGTQVTVSS”: the “polyreactivity (PSR sort gate)” value is “high polyreactivity”.
Take “QVQLVESGGGLVQAGGSLRLSCAASGYTFPFYTMGWYRQAPGKERELVAAINSGGSTYYADSVKGRFTISRDNAKNTVYLQMNSLKPEDNAVYYCAVEGGFRVRYQAQYRYYYCGQGTQVTVSS”: the “polyreactivity (PSR sort gate)” value is listed as “high polyreactivity”.
“QVQLVESGGGLVQAGGSLRLSCAASGFTFYRYTMGWYRQAPGKERELFAAISARGVSTYYADSVKGRFTISRDNAKNTVYLQMNSLKPEDTAVYYCYVSRYDTWGQGTQVTVTS”: the “polyreactivity (PSR sort gate)” value is recorded as “high polyreactivity”.
With “QVQLVESGGGLDQAGGSLRLSCADSGITFSYYAMRWYRQAPGKERELVAAISSGGSKNYADSVKGRFTISRDNGKNTVYFQMNSLKPEDTEVYYCAATQQFWWAYRYDYWGQGTQVTVSS”, the “polyreactivity (PSR sort gate)” value was “low polyreactivity”.
“LVQLVESGGGLVQAGGSLRLSCAASGYIIGFYVMGWYRQAPGKERELVAVIDYGSDNTYYADSVLGRYTISRDNAKNTVYLQMNSLKPEETAVYYCAAEWYKSNYYDYDTWGQGTQVTVSS”: the “polyreactivity (PSR sort gate)” value is recorded as “high polyreactivity”.
As for “QVQLVESVGGLVQAGGSLRLSCAASGRIFSTYAMGWYRQAPGKERELVAAIRFSGTSTYADSVKGRFTISRDNAKNTVYLQMNSLKPEDTAVDYCAAQRYTYYRRYGYLGQGTQVTVSS”, the “polyreactivity (PSR sort gate)” value is “high polyreactivity”.
As for “QVQLVESGGGLVQAGGSLRLSCAASGSIFDLYAMGWYRQAPGKERELVADISIADSTNYADSVKGRFTISRDNAKNTVYLQMNSLKPEDTGVYYCNADVWWYSYEYDYWGQGTQVTVSS”, the “polyreactivity (PSR sort gate)” value was “low polyreactivity”.
